Assay results reported in patent US20240059758A1 (published 2024).
Read-outs that look alike come from different tables or passages of the source.

What was measured:
[1] = target: T1, receptor binding domain (RBD) of the S1-subunit of SARS-CoV-2 glycoprotein S (UniProt P0DTC2 319-541); assay: flow
RBD-mFc [2] = target: T2, RBD-mFc (UniProt P0DTC2 319-591); assay: ELISA
S1-mFc [3] = target: T3, S1-mFc (UniProt P0DTC2 14-694); assay: ELISA
[4] = target: T1, receptor binding domain (RBD) of the …; assay: flow; remark: listed apart in the source
RBD-mFc [5] = target: T2, RBD-mFc; assay: ELISA; remark: listed apart in the source
S1-mFc [6] = target: T3, S1-mFc; assay: ELISA; remark: listed apart in the source
S1- = S1- (UniProt P0DTC2 14-1210); assay: ELISA

| Binder | IC50 [1] [nM] | EC50 (RBD-mFc [2]) [nM] | EC50 (S1-mFc [3]) [nM] | IC50 [4] [nM] | EC50 (RBD-mFc [5]) [nM] | EC50 (S1-mFc [6]) [nM] | EC50 (S1-) [nM] |
| --- | --- | --- | --- | --- | --- | --- | --- |
| STE73-2G8 (antibody, V domains shown) VH: QVQLVQSGGGLVKPGGSLRLSCAASGITVSSNYMSWVRQAPGKGLEWVSILYSGGTTFYTDSVKGRFTISRDNSKNTLHLQMNSLRAEDTAVYYCARWSGTYYDYWGQGTLVTVSS VL: SSELTQDPAVSVALGQTVRITCQGDSLRSYYASWYQQKPGQAPVLVIYGKNNRPSGIPDRFSGSSSGNTASLTITGAQAEDEADYYCNSRDSTNDPVLFGAGTKLTVL | 2.8 | 0.7 | 1 |  |  |  |  |
| STE70-1E12 (antibody, V domains shown) VH: QMQLVQSGAEVKKPGASVKVSCKASGYTFTGYYMHWVRQAPGQGLEWMGRINPNSGGTNYAQKFQGRVTMTRDTSTSTAYMELSRLRSDDTAVYYCVRDGYNFNNWFDPWGQGTLVTVSS VL: NFMLTQPHSVSGSPGETITISCTGSGGSIASNYVQWYRQRPGSAPTIVIYEDTQRPSGVPDRFSGSIDSSSNSASLTISGLKTEDEADYYCQSSESTNHVMFGGGSKLTVL |  |  |  | 3.2 | 1.1 | 1.5 |  |
| STE73-2B2 (antibody, V domains shown) VH: QVQLVQSGAEVKKPGASVKVSCKASGYTFTGYYMHWVRQAPGQGLEWMGWINPNSGGTNYAQKFQGRVTITRDTSASTAYMELSSLRSEDTAVYYCARVSGWYFGAFDIWGQGTMVTVSS VL: LPVLTQPHSLSESPGKTVNISCTGSSGSIASNYVQWYQQRPGSAPTTVIYEDSHRPSGVPDRFSGSIDSSSNSASLSISGLKTEDEADYYCQSYDSSNNQWVFGGGTKLTVL | 1.7 | 0.5 | 0.8 |  |  |  |  |
| STE73-2E9 (antibody, V domains shown) VH: QVQLVQSGAEVKKPGASVKVSCKASGYTFTSYGISWVRQAPGQGLEWMGWISAYNGNTNYAQKLQGRVTMTTDTSTSTAYMELRSLRSDDTAVYYCARGKFDYWGQGTLVTVSS VL: QSVLTQPPSVSEAPSQRVTISCSGSSSNIGNNAVNWYQQLPGKAPKLLIYYDDVLPSGVSDRFSGSKSGTSASLAISGLQSGDEADYYCAAWDDSLSGVVFGGGTKLTVL | 3.4 | 0.7 | 0.6 |  |  |  |  |
| STE73-6B10 (antibody, V domains shown) VH: QVQLVQSGAEVKKPGASVKVSCKASGYTFTSYGISWVRQAPGQGLEWMGWINPNSGGTNYAQKFQGRVTMTRDTSISTAYMELSRLRSDDTAVYYCARDRLRYGDSGSYYYYGMDVWGQGTTVTVSS VL: QSALTQPRSVSGSPGQSVTISCTGTSSDVGGYNYVSWYQQHPGKAPKLLISEVTRRPSGVPDRFSGSKSGNTASLTVSGLQTEDEADYYCGSYAGSNTWVFGGGTKLTVL | 73 | 17.3 | 15.3 |  |  |  |  |
| STE72-8A2 (antibody, V domains shown) VH: QVQLVQSGAEVKKPGASVKVSCKASGYTFTSYGISWVRQAPGQGLEWMGWISAYNGNTNYAQKLQGRVTMTTDTSTSTAYMELRSLRSDDTAVYYCARFFYDSSGYSTDYWGQGTLVTVSS VL: not shown |  |  |  | 1.5 | 1.5 | 2.3 |  |
| STE72-8A6 (antibody, V domains shown) VH: QVQLVQSGAEVKKPGASVKVSCKASGYTFTSYGISWVRQAPGQGLEWMGWISAYNGNTNYAQKLQGRVTMTTDTSTSTAYMELRSLRSDDTAVYYCARFFYDSSGYSTDYWGQGTLVTVSS VL: DIVMTQSPSTLSASVGDRVTISCRASQNIGTWLAWYQQKPGKAPKLLISKASSLESGVPSRFSGSGSGTDFTLTISSLQPDDFATYYCQQYDSYLFTFGQGTKLEIR |  |  |  | 2.8 | 1.5 | 2.9 |  |
| STE72-2G4 (antibody, V domains shown) VH: QVQLVQSGAEVKKPGASVKVSCKASGYTFTSYGISWVRQAPGQGLEWMGWISAYNGNTNYAQKLQGRVTMTTDTSTSTAYMELRSLRSDDTAVYYCARFFYDSSGYSTDYWGQGTLVTVSS VL: ETTLTQSPAFMSVTPGDRAILSCRASQSVDSHLAWYHQKPGQPPRLLIYGASTRATGIPARFSGSRSGTEFTLTISGLQSEDLGVYYCQQYASWPPGYNFGQGTKLEIK |  |  |  | 3.7 | 0.7 | 0.9 |  |
| STE72-4E12 (antibody, V domains shown) VH: QVQLVQSGAEVKKPGASVKVSCKASGYTFTSYYMHWVRQAPGQGLEWMGIINPSGGSTSYAQKFQGRVTMTRDTSTSTVYMELSSLRSEDTAVYYCARDLSGGLDYWGQGTLVTVSS VL: ETTLTQSPATLSVSPGERVTLACRAGQTISSKLAWYRQKPGQAPSLLIYDASTRATGVPARFSGSGSGTEFTLTISSLQSEDFAVYYCQQYSDWPPTFGQGTKVEIK |  |  |  | 3 | 4.7 | 10.4 | 11.6 |
| STE73-2C2 (antibody, V domains shown) VH: QVQLVESGGGLVQPGGSLRLSCAASGITVSSNYMSWVRQAPGKGLEWVSVIYSGGSTFYADSVKGRFTISRDNSKNTLYLQMNSLRAEDTGVYYCARGHDNLDYWGQGTLVTVSS VL: LPVLTQPHSVSESPGKTVIISCTGSSDSIASNYVQWYQQRPGSAPTTVIYEDNKRPSGVPDRFSGSTDSSSNSASLTISGLKTEDEAEYYCQSYDSNNHWVFGGGTKLTVL | 3 | 9.6 | 17.9 |  |  |  |  |
| STE72-1B6 (antibody, V domains shown) VH: QVKLVQSGGGLVQPGGSLRLSCAASGFTFSSYAMSWVRQAPGKGLEWVSGISGSGGSTYYADSVKGRFTISRDNSKNTLYLQVNSLRAEDTAVYYCAKAPYGDFRGLWYFDYWGQGTLVTVSS VL: DIVMTQSPFSVSASVGDRVTISCRASQDIRSWLAWYQQKPGKAPQLLIYDASSLQSGVPSRFSGSGSGTDFTLTISSLQPEDFATYYCQQADSVPLTFGGGTKVEIQ |  |  |  | 4.8 | 1.6 | 2.2 |  |
| STE73-6C1 (antibody, V domains shown) VH: QVQLVQSGGGVVQPGRSLRLSCAASGFTFSSYAMHWVRQAPGKGLEWVAVISYDGSNKYYADSVKGRFTISRDNSKNTLYLQMNSLRAEDTAVYYCARSYVGGMDVWGQGTTVTVSS VL: QLVLTQSPSVSGAPGQSVTISCTGTDSNIGAGYNVHWYQQLPGAAPKLIISYTDNRPSGVPDRFSGSKSGTSASLAITGLQAEDEADYYCQSSDRTLVGSLFGTGTKVTVL | 4.1 | 2 | 2.8 |  |  |  |  |
| STE73-9G3 (antibody, V domains shown) VH: QVQLQESGGGLVQPGGSLRLSCAASGFTFSSYAMSWVRQAPGKGLEWVSAISGSGGSTYYADSVKGRFTISRDNSKNTLYLQMNSLRAEDTAVYYCARDLVLGSGSSNDWGRGTLVTVSS VL: QPVLTQPPSVSGAPGQSVTISCTGTDSNIGAGYNVHWYQQLPGAAPKLIISYTDNRPSGVPDRFSGSKSGTSASLAITGLQAEDEADYYCQSSDRTLVGSLFGTGTKVTVL | 3.4 | 1.4 | 1.6 |  |  |  |  |
